Measured values as given in the RNAGym collection of RNA variant scans (doi:10.1073/pnas.2313332121).
Variants at the floor of the assay were thinned out.

B1: TPR 5TU (parent)
chain: GGAUCUUCUCGAUCUAACAAAAAAGACAAAUCUGCCACAAAGCUUGAGAGCAUCUUCGGAUGCAGAGGCGGCAGCCUUCGGUGGCGCGAUAGCGCCAACGUUCUCAACUAUGACACGCAAAACGCGUGCUCCGUUGAAUGGAGUUUAUCAUG

Variants of: B1
Assay: polymerase ribozyme fitness, log enrichment relative to wild type (log ratio); higher = more active; in vitro selection for triplet polymerase activity
How it was run: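 A single round of triplicate in vitro selection, including frozen incubation at −7 °C, was applied to PCR-built, transcribed mutant libraries of each subunit of a heterodimeric triplet polymerase ribozyme. Illumina sequencing of input and output libraries retained genotypes with ≥10 input reads and ≥1 read per output. Fitness is the base-2 logarithm of genotype enrichment divided by wild-type enrichment, from inverse-variance-weighted replicate averages.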

With C14U A115G as the variant, how does the “polymerase ribozyme fitness (log ratio)” value read?
Its value is -2.56.

With C14G C85G C131A as the variant, how does the “polymerase ribozyme fitness (log ratio)” value read?
Its value is at most -4.2.

For C14U A47C G84A, which “polymerase ribozyme fitness (log ratio)” value is on record?
Its value is -2.49.

For C14U G48A A64C U90C U102G C103G A115G A122G U127A A150C, which “polymerase ribozyme fitness (log ratio)” value is on record?
The value was at most -4.2.

With U15A as the variant, how does the “polymerase ribozyme fitness (log ratio)” value read?
Its value is -0.182.

Which “polymerase ribozyme fitness (log ratio)” value does the source give for C14G C87G A107G here?
Its value is at most -4.2.

For C14U A24C U53A G67U C108U A150G, which “polymerase ribozyme fitness (log ratio)” value is on record?
Its value is at most -4.2.

With C14U A26U C54U C79U G94A U111G C123U as the variant, how does the “polymerase ribozyme fitness (log ratio)” value read?
The value was at most -4.2.

Which “polymerase ribozyme fitness (log ratio)” value does the source give for C14G G86C here?
The value was at most -4.2.

Which “polymerase ribozyme fitness (log ratio)” value does the source give for C14G U148A here?
Its value is -4.14.

For C14G U61A C87U C95G U135G A142C, which “polymerase ribozyme fitness (log ratio)” value is on record?
The value was at most -4.2.

Which “polymerase ribozyme fitness (log ratio)” value does the source give for C14U U56G G83U C95U C116U here?
Its value is -3.87.

For C14U C27G G94C G133U A150G, which “polymerase ribozyme fitness (log ratio)” value is on record?
The value was at most -4.2.

For C14G G83A C96U A110G A142U U148A, which “polymerase ribozyme fitness (log ratio)” value is on record?
The value was at most -4.2.

With C14G C87U G141A as the variant, how does the “polymerase ribozyme fitness (log ratio)” value read?
Its value is -2.56.

With C14U A41C C75G G84U C118A as the variant, how does the “polymerase ribozyme fitness (log ratio)” value read?
The value was at most -4.2.

For C14G U82C, which “polymerase ribozyme fitness (log ratio)” value is on record?
Its value is -3.65.

With C14U C57G C85U G152A as the variant, how does the “polymerase ribozyme fitness (log ratio)” value read?
The value was -3.89.

For C14U A26C G48C U53G C54A C93A U145A U148C, which “polymerase ribozyme fitness (log ratio)” value is on record?
The value was at most -4.2.

With C14U U145A as the variant, how does the “polymerase ribozyme fitness (log ratio)” value read?
Its value is -1.55.

For C14U A17G G83A C108U, which “polymerase ribozyme fitness (log ratio)” value is on record?
Its value is at most -4.2.

Which “polymerase ribozyme fitness (log ratio)” value does the source give for C14G U31A G136A here?
The value was -2.23.

With C14G G65U G67U G133A U135A as the variant, how does the “polymerase ribozyme fitness (log ratio)” value read?
The value was at most -4.2.

For C14U C87U C99U U101G A137C U145G, which “polymerase ribozyme fitness (log ratio)” value is on record?
Its value is at most -4.2.

For C14U C18A A20C C93A G136A A142C, which “polymerase ribozyme fitness (log ratio)” value is on record?
Its value is -2.57.

With C14G U56G C57U C63U C72U U151G as the variant, how does the “polymerase ribozyme fitness (log ratio)” value read?
Its value is at most -4.2.

Which “polymerase ribozyme fitness (log ratio)” value does the source give for C14U C18A A19C A22G C93A A120C U139C G143U here?
Its value is at most -4.2.

With C14U G58C C85U A89G G136A as the variant, how does the “polymerase ribozyme fitness (log ratio)” value read?
The value was -3.44.

For C14U C85U, which “polymerase ribozyme fitness (log ratio)” value is on record?
The value was -1.65.

Which “polymerase ribozyme fitness (log ratio)” value does the source give for C14G C96U here?
Its value is -2.21.

With C14U C79A G84A A150G as the variant, how does the “polymerase ribozyme fitness (log ratio)” value read?
The value was at most -4.2.

Which “polymerase ribozyme fitness (log ratio)” value does the source give for C14U C57A A89G C96U U101A G136U here?
The value was at most -4.2.

With C14U C18G C32G A66C C93U A98U as the variant, how does the “polymerase ribozyme fitness (log ratio)” value read?
Its value is at most -4.2.

For C14G C131U, which “polymerase ribozyme fitness (log ratio)” value is on record?
The value was -1.27.

For C14G C95U, which “polymerase ribozyme fitness (log ratio)” value is on record?
Its value is -1.57.

Which “polymerase ribozyme fitness (log ratio)” value does the source give for C14G C69G C96A G124A here?
The value was -3.69.

With C14G G25U C36A U55G G65C C75U G141C as the variant, how does the “polymerase ribozyme fitness (log ratio)” value read?
Its value is at most -4.2.

For C14U A47C C54U G84A, which “polymerase ribozyme fitness (log ratio)” value is on record?
The value was -1.86.

Which “polymerase ribozyme fitness (log ratio)” value does the source give for C14G U15C C51U G68A G83A U90G C149G here?
Its value is at most -4.2.

For C14G G88U C93A C116G U144A, which “polymerase ribozyme fitness (log ratio)” value is on record?
The value was at most -4.2.

With C14U A21G A29G C85U C116A as the variant, how does the “polymerase ribozyme fitness (log ratio)” value read?
The value was -4.2.

Which “polymerase ribozyme fitness (log ratio)” value does the source give for C14U U45A A91U U127G here?
Its value is at most -4.2.

For C14U C96A, which “polymerase ribozyme fitness (log ratio)” value is on record?
Its value is -1.59.

For C14G G83A U90G G92U U102G C105A C118U A120C U146G, which “polymerase ribozyme fitness (log ratio)” value is on record?
Its value is at most -4.2.

For C14G G88C C125G, which “polymerase ribozyme fitness (log ratio)” value is on record?
Its value is -4.08.

With C14G C79A C93G C96A as the variant, how does the “polymerase ribozyme fitness (log ratio)” value read?
Its value is at most -4.2.

Which “polymerase ribozyme fitness (log ratio)” value does the source give for C14G G48C A49G U53A G92U C93U A107U here?
Its value is at most -4.2.

With C14U C54U G84A G133U as the variant, how does the “polymerase ribozyme fitness (log ratio)” value read?
The value was -3.87.

For C14U U15G U45A G58U C75G U135C, which “polymerase ribozyme fitness (log ratio)” value is on record?
The value was at most -4.2.

For C14U G50C U56G C69U C118U, which “polymerase ribozyme fitness (log ratio)” value is on record?
The value was at most -4.2.

For C14G U78A G86A, which “polymerase ribozyme fitness (log ratio)” value is on record?
Its value is at most -4.2.

Which “polymerase ribozyme fitness (log ratio)” value does the source give for C14G U77G A97U U111C here?
Its value is -4.01.

For C14U C76A C85U, which “polymerase ribozyme fitness (log ratio)” value is on record?
Its value is -2.67.

Which “polymerase ribozyme fitness (log ratio)” value does the source give for C14U A17G G70C G80A A137U here?
Its value is at most -4.2.

For C14U A28U A122G G141C, which “polymerase ribozyme fitness (log ratio)” value is on record?
Its value is -4.15.

With C14U G92C A150U as the variant, how does the “polymerase ribozyme fitness (log ratio)” value read?
Its value is -4.2.

For C14U A17C C35G G141C U151A, which “polymerase ribozyme fitness (log ratio)” value is on record?
Its value is at most -4.2.

With C14G U56A C85G G92A as the variant, how does the “polymerase ribozyme fitness (log ratio)” value read?
The value was at most -4.2.

Which “polymerase ribozyme fitness (log ratio)” value does the source give for C14U A122G here?
The value was -1.71.

With C14G G92U as the variant, how does the “polymerase ribozyme fitness (log ratio)” value read?
Its value is -2.61.

With C14U U56A as the variant, how does the “polymerase ribozyme fitness (log ratio)” value read?
The value was -1.8.

With C14G C95G C96G as the variant, how does the “polymerase ribozyme fitness (log ratio)” value read?
Its value is -4.07.

Which “polymerase ribozyme fitness (log ratio)” value does the source give for C14U A28U C51G A97G here?
The value was at most -4.2.

With C14U C87U as the variant, how does the “polymerase ribozyme fitness (log ratio)” value read?
Its value is -2.18.

With C14U C87A as the variant, how does the “polymerase ribozyme fitness (log ratio)” value read?
Its value is at most -4.2.

Which “polymerase ribozyme fitness (log ratio)” value does the source give for C14U C76A C87U here?
The value was -3.49.

For C14U G46A C54A C132A, which “polymerase ribozyme fitness (log ratio)” value is on record?
The value was at most -4.2.

With C14U C54G C93A C95G A150G as the variant, how does the “polymerase ribozyme fitness (log ratio)” value read?
Its value is at most -4.2.

With C14U G94C A107G G117A A142U as the variant, how does the “polymerase ribozyme fitness (log ratio)” value read?
Its value is at most -4.2.

For C14U G81A, which “polymerase ribozyme fitness (log ratio)” value is on record?
Its value is -1.14.

Which “polymerase ribozyme fitness (log ratio)” value does the source give for C14U A17U A28G U44A A73G C95A G100U A106G A115G here?
Its value is at most -4.2.

For C14U U55A U56A C76A, which “polymerase ribozyme fitness (log ratio)” value is on record?
Its value is -2.4.

For C14U A16C C51U A52G C93U C116A A121C, which “polymerase ribozyme fitness (log ratio)” value is on record?
Its value is -1.81.

For C14U C35U C85U A106G A115G, which “polymerase ribozyme fitness (log ratio)” value is on record?
Its value is -3.81.

With C14U C54U C57U C72U G83A as the variant, how does the “polymerase ribozyme fitness (log ratio)” value read?
Its value is -4.05.

Which “polymerase ribozyme fitness (log ratio)” value does the source give for C14G U102A here?
The value was -4.05.

With C14U C43U C72A G84A C93G C95G A142G U144A as the variant, how does the “polymerase ribozyme fitness (log ratio)” value read?
The value was at most -4.2.

Which “polymerase ribozyme fitness (log ratio)” value does the source give for C14U A29U C54G G83U G84U C105G U151G here?
The value was at most -4.2.

With C14U G62C C75A C93G as the variant, how does the “polymerase ribozyme fitness (log ratio)” value read?
Its value is at most -4.2.

For C14U A138C, which “polymerase ribozyme fitness (log ratio)” value is on record?
The value was -3.75.

With C14U A23C as the variant, how does the “polymerase ribozyme fitness (log ratio)” value read?
Its value is at most -4.2.

For C14G G59A C87U, which “polymerase ribozyme fitness (log ratio)” value is on record?
Its value is -3.82.

With C14G U53A C85G U90A A91U C99A C118A A120U as the variant, how does the “polymerase ribozyme fitness (log ratio)” value read?
The value was at most -4.2.
